T1: GST-tagged ARS2^147–871 (human, UniProt Q9BXP5-4 147-871)
T1 construct: human ARS2 (SRRT) isoform-e, residues 147-871; The cloning of the GST fusion is not described; also called GST-ARS2; source: E. coli Rosetta 2 (said of all constructs but full-length NCBP3); held on glutathione sepharose
T1 sequence (looked up): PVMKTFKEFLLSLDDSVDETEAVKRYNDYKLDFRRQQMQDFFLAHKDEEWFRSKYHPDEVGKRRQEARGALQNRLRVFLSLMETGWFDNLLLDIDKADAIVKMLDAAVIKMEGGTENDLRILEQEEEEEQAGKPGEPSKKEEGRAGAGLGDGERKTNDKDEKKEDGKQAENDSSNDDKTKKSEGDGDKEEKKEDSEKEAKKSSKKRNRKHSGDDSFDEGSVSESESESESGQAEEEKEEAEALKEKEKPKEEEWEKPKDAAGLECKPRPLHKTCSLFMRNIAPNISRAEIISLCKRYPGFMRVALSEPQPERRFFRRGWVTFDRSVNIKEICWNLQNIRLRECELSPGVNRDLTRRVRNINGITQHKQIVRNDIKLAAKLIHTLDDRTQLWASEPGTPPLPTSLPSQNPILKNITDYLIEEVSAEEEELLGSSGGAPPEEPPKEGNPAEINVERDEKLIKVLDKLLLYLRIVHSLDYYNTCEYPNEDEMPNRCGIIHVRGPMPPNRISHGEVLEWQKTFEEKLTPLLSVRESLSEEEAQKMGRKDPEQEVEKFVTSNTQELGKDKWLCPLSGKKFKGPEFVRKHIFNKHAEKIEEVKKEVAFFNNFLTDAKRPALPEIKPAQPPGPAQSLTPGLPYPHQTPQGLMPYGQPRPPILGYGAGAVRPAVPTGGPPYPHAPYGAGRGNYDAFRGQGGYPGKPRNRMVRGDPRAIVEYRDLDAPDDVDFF

T2: ARS2^147–871 (human, UniProt Q9BXP5-4 147-871)
T2 construct: human ARS2 (SRRT) isoform-e, 871 residues, residues 147-871, cloned into pETM11; also called hARS2; SRRT; source: E. coli Rosetta 2, purified (Ni-Sepharose, TEV cleavage, HiTrap Q, heparin if necessary, SEC); not shown: His6, N-terminal, cleaved
T2 sequence (looked up): T1 sequence (looked up)

T3: ARS2^147–270+494–763 (human, UniProt Q9BXP5-4 147-270; Q9BXP5-4 494-763)
T3 construct: human ARS2 (SRRT) isoform-e, residues 147-270, cloned into pETM11; human ARS2 (SRRT) isoform-e, residues 494-763 (lacks the RRM domain), cloned for co-expression into pDUET and pET15b; Lacks the unstructured regions and the RRM domain; source: E. coli Rosetta 2, two fragments co-expressed, purified; not shown: His6, N-terminal, cleaved
T3 sequence (looked up) 1: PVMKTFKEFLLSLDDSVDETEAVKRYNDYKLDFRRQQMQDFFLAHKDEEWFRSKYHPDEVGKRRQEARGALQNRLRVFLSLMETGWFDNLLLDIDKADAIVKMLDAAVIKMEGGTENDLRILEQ
T3 sequence (looked up) 2: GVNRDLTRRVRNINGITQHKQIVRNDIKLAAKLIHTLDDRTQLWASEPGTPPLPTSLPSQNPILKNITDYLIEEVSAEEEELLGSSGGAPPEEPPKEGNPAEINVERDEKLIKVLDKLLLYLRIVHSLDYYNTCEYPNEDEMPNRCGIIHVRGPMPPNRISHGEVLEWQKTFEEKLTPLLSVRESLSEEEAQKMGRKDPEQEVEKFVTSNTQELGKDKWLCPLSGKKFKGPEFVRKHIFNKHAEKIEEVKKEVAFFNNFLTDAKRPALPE

B1: ARS2^171–270+408–763 (domain or fragment, human)
chain 1: RYNDYKLDFRRQQMQDFFLAHKDEEWFRSKYHPDEVGKRRQEARGALQNRLRVFLSLMETGWFDNLLLDIDKADAIVKMLDAAVIKMEGGTENDLRILEQ
chain 2: GLECKPRPLHKTCSLFMRNIAPNISRAEIISLCKRYPGFMRVALSEPQPERRFFRRGWVTFDRSVNIKEICWNLQNIRLRECELSPGVNRDLTRRVRNINGITQHKQIVRNDIKLAAKLIHTLDDRTQLWASEPGTPPLPTSLPSQNPILKNITDYLIEEVSAEEEELLGSSGGAPPEEPPKEGNPAEINVERDEKLIKVLDKLLLYLRIVHSLDYYNTCEYPNEDEMPNRCGIIHVRGPMPPNRISHGEVLEWQKTFEEKLTPLLSVRESLSEEEAQKMGRKDPEQEVEKFVTSNTQELGKDKWLCPLSGKKFKGPEFVRKHIFNKHAEKIEEVKKEVAFFNNFLTDAKRPALPE
notes: human ARS2 (SRRT) isoform-e, residues 171-270, cloned into pETM11; human ARS2 (SRRT) isoform-e, residues 408-763, cloned for co-expression into pDUET and pET15b; Two co-expressed fragments of one protein that fold into one core; also called crystallised core; source: E. coli Rosetta 2, two fragments co-expressed, purified; not shown: His6, N-terminal, cleaved
B2: full-length NCBP3 (residues 1–620) (natural protein, human, UniProt Q53F19-1 1-620, looked up)
chain: MAAVRGLRVSVKAEAPAGPALGLPSPEAESGVDRGEPEPMEVEEGELEIVPVRRSLKELIPDTSRRYENKAGSFITGIDVTSKEAIEKKEQRAKRFHFRSEVNLAQRNVALDRDMMKKAIPKVRLETIYICGVDEMSTQDVFSYFKEYPPAHIEWLDDTSCNVVWLDEMTATRALINMSSLPAQDKIRSRDASEDKSAEKRKKDKQEDSSDDDEAEEGEVEDENSSDVELDTLSQVEEESLLRNDLRPANKLAKGNRLFMRFATKDDKKELGAARRSQYYMKYGNPNYGGMKGILSNSWKRRYHSRRIQRDVIKKRALIGDDVGLTSYKHRHSGLVNVPEEPIEEEEEEEEEEEEEEEEDQDMDADDRVVVEYHEELPALKQPRERSASRRSSASSSDSDEMDYDLELKMISTPSPKKSMKMTMYADEVESQLKNIRNSMRADSVSSSNIKNRIGNKLPPEKFADVRHLLDEKRQHSRPRPPVSSTKSDIRQRLGKRPHSPEKAFSSNPVVRREPSSDVHSRLGVPRQDSKGLYADTREKKSGNLWTRLGSAPKTKEKNTKKVDHRAPGAEEDDSELQRAWGALIKEKEQSRQKKSRLDNLPSLQIEVSRESSSGSEAES
notes: human NCBP3, full length, residues 1-620, cloned into pFASTBac HTb; also called NCBP3^1–620; source: High Five insect cells, purified; not shown: His6, N-terminal, cleaved
B3: ARS2^147–270+408–763ΔloopB (domain or fragment, human)
chain 1: T3 sequence (looked up) 1
chain 2: GLECKPRPLHKTCSLFMRNIAPNISRAEIISLCKRYPGFMRVALSEPQPERRFFRRGWVTFDRSVNIKEICWNLQNIRLRECELSPGVNRDLTRRVRNINGITQHKQIVRNDIKLAAKLIHTLDDRTQLWASEPGTPPLPTSLPSQNPILKNITDYLIEEGSGSGSERDEKLIKVLDKLLLYLRIVHSLDYYNTCEYPNEDEMPNRCGIIHVRGPMPPNRISHGEVLEWQKTFEEKLTPLLSVRESLSEEEAQKMGRKDPEQEVEKFVTSNTQELGKDKWLCPLSGKKFKGPEFVRKHIFNKHAEKIEEVKKEVAFFNNFLTDAKRPALPE
notes: human ARS2 (SRRT) isoform-e, residues 147-270; human ARS2 (SRRT) isoform-e, from 408 to E567, before the deleted loop B; linker that replaces loop B (568-598); human ARS2 (SRRT) isoform-e, from E599 to 763, after the deleted loop B; the crystallisation methods print ∆566–598GSGSGS; also called ARS2^147–270+408–763Δ568–598 (Δloop B); Human ARS2 147-270+408-763 Δloop B: Δ568–598 E567–GSGSGS–E599; …
B4: NCBP3^1–282 (domain or fragment, human, UniProt Q53F19-1 1-282, looked up)
chain: MAAVRGLRVSVKAEAPAGPALGLPSPEAESGVDRGEPEPMEVEEGELEIVPVRRSLKELIPDTSRRYENKAGSFITGIDVTSKEAIEKKEQRAKRFHFRSEVNLAQRNVALDRDMMKKAIPKVRLETIYICGVDEMSTQDVFSYFKEYPPAHIEWLDDTSCNVVWLDEMTATRALINMSSLPAQDKIRSRDASEDKSAEKRKKDKQEDSSDDDEAEEGEVEDENSSDVELDTLSQVEEESLLRNDLRPANKLAKGNRLFMRFATKDDKKELGAARRSQYYMK
notes: cloned into pETM11; also called N-terminal region of NCBP3; source: E. coli Rosetta 2, purified; not shown: His6, N-terminal, cleaved
B5: FARB (FLASH–ARS2-binding region) peptide of FLASH, residues 931–943 (peptide)
peptide: DELEEGEIRSDSE
notes: FLASH (FLICE-associated huge protein), residues 931-943; also called FLASH^931–943; source: synthetic peptide, bought: GeneScript
B6: FLASH^921–946 peptide (peptide, UniProt Q9UKL3 921-946, looked up)
peptide: EADTCKNSPLDELEEGEIRSDSETSK
notes: FLASH (FLICE-associated huge protein), residues 921-946, holds FARB (931-943); source: synthetic peptide, bought: GeneScript

Experiments:
[1] = molecular target: PHAX (endogenous) (UniProt Q9H814); test: EGFP pull down, LC–MS/MS (AP–MS, TMT labelled); details: HEK 293T/17 cells; three independent affinity purifications per bait, except ARS2 wt in b (one pull down); read off a plot
Chain of PHAX (endogenous) (Q9H814 whole entry): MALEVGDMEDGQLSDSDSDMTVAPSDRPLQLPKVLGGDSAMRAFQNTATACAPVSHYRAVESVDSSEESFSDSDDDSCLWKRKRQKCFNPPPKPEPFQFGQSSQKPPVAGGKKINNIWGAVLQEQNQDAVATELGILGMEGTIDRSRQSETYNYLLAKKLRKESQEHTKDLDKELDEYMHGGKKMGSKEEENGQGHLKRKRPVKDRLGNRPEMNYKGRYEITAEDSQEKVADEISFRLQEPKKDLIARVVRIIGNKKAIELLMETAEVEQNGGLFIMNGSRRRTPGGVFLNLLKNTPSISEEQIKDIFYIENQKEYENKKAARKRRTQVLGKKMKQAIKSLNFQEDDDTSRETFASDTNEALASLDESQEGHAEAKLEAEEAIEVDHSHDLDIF

[2] = molecular target: CBP20 (NCBP2) (endogenous) (UniProt P52298); test: EGFP pull down, LC–MS/MS (AP–MS, TMT labelled); details: HEK 293T/17 cells; three independent affinity purifications per bait, except ARS2 wt in b (one pull down); read off a plot
Chain of CBP20 (NCBP2) (endogenous) (P52298 whole entry): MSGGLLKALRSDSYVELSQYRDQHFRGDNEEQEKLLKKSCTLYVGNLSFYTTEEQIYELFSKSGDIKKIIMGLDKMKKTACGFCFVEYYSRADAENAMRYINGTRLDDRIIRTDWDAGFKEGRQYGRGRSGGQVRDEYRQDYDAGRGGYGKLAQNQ

[3] = molecular target: CBP80 (NCBP1) (endogenous) (UniProt Q09161); test: EGFP pull down, LC–MS/MS (AP–MS, TMT labelled); details: HEK 293T/17 cells; three independent affinity purifications per bait, except ARS2 wt in b (one pull down); read off a plot
Chain of CBP80 (NCBP1) (endogenous) (Q09161 whole entry): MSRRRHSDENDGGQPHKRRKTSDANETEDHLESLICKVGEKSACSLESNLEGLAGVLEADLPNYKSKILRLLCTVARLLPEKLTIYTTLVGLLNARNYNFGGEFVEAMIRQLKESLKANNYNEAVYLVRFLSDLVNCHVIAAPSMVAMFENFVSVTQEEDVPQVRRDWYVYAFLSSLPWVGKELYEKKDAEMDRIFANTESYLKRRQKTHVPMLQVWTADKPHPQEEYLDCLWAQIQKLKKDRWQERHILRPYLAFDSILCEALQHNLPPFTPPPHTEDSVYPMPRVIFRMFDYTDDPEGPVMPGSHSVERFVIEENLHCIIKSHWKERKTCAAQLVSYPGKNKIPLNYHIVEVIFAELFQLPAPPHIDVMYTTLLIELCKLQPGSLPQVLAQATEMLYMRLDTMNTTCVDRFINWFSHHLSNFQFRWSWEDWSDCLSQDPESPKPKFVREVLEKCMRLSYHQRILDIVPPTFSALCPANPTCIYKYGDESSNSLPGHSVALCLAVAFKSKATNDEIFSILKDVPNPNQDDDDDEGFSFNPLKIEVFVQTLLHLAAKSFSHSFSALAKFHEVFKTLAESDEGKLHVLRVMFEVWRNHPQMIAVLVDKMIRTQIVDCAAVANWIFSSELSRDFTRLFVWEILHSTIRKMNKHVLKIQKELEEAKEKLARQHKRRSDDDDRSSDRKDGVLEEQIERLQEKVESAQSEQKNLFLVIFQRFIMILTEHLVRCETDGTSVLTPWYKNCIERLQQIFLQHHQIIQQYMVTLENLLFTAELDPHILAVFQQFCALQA

[4] = molecular target: B2; test: pull-down; purified recombinant NCBP3 constructs immobilised on m7GTP sepharose, incubated with CBP80 and/or wild type or mutant ARS2; eluted fractions on Coomassie-stained SDS-PAGE; details: both partners purified
[5] = molecular target: T1, GST-tagged ARS2^147–871; test: pull-down; GST-tagged ARS2 147–871 on glutathione sepharose, NCBP3 constructs added, in the absence of the cap analogue; details: both partners purified
[6] = molecular target: T2, ARS2^147–871; test: SEC; purified proteins mixed, Superdex 200, 120 mM NaCl, 1 mM TCEP, 20 mM HEPES pH 7.8; in the absence of m7GTP; fractions on SDS-PAGE; details: both partners purified
[7] = molecular target: T2, ARS2^147–871; test: ITC; MicroCal ITC200, 25 °C, ARS2 constructs with NCBP3 1–282; buffer containing 250 mM NaCl; injections of 2.5 µL; details: both partners purified
[8] = molecular target: T2, ARS2^147–871; test: ITC; MicroCal ITC200, 25 °C, ARS2 constructs with FLASH peptides; high salt (HS): buffer containing 250 mM NaCl; single-site fit; which partner was injected is not told; details: both partners purified
[9] = molecular target: B1; test: as above; details: both partners purified
[10] = molecular target: T3, ARS2^147–270+494–763; test: ITC; MicroCal ITC200, 25 °C, ARS2 construct with FARB; not marked high salt: 20 mM HEPES, 120 mM, 2 mM TCEP pH 7.8; single-site fit; details: both partners purified

Q: For “EGFP–ARS2 wt (from UniProt Q9BXP5-4) R854A; R859A; F871A”, which other: log2 (fold change) [1] is on record?
A: -2.6

Q: What about the other: log2 (fold change) [2] of the same molecule?
A: -3.9

Q: And the other: log2 (fold change) [3]?
A: -4

Q: Does B1 bind [4]?
A: binds

Q: What does the source list for B2?
A: binding result [5]: binds; binding result [6]: binds

Q: Does B3 bind [4]?
A: binds

Q: Does B4 bind [5]?
A: binds

Q: Does B4 bind [7]?
A: binds

Q: B5 was tested. Which Kd [8] did it give?
A: 5.1 µM

Q: What about the Kd [9] of the same molecule?
A: 3.8 µM

Q: What about the Kd [10] of the same molecule?
A: 0.5 µM

Q: For B6, which Kd [8] is on record?
A: 5.5 µM

Source: article PMC5923425, “Structural analysis of human ARS2 as a platform for co-transcriptional RNA sorting” (Nature Communications, 2018)
